Series [1] is described as follows: Substrate specificity. The settings on record: 333 mM. The series is classed as biochemical. From the text: As these substrates, maltose, D-galactose, D-fructose, sorbitol, lactose, sucrose, D-xylose, D-mannose and trehalose were used. When the activity to D-glucose was defined as 100%, the relative activity to each substrate was found. These relative activities are described collectively as the substrate specificity in Table 2.

The nature of series [2]: Temperature characteristics. It counts as biochemical. The procedure: The relative activity at each temperature was calculated when the activities at 30 and 45° C. were each defined as 100%. In this case, each sample was measured twice in the same condition. An average of the measured relative activities is collectively described in Table 3.
The mark [3] stands for this setting: substrate D-fructose, D-glucose = 100%.
The mark [4] stands for this setting: substrate D-galactose, D-glucose = 100%.
The mark [5] stands for this setting: substrate D-glucose (defined as 100%).
Where [6] appears, read: substrate D-mannose, D-glucose = 100%.
Setting [7] is: substrate D-xylose, D-glucose = 100%.
Setting [8] is: substrate lactose, D-glucose = 100%.
Where [9] appears, read: substrate maltose, D-glucose = 100%.
[10] abbreviates: substrate sorbitol, D-glucose = 100%.
[11] abbreviates: substrate sucrose, D-glucose = 100%.
Setting [12] is: substrate trehalose, D-glucose = 100%.

B1: BotGLD: purified enzyme of GLD derived from Botrytis tulipae, produced in A. oryzae NS4 carrying the BotGLD-Atsig modified gene (protein, listed as Botrytis tulipae)
chain: MYRLLSTFALASLAAASTDSTLTYDYIVIGAGTSGLVIANRLSELNVTVAVIEAGDSGYNNPNVTNPSGYGLSFGTDIDWAYQSTNQKYAGNTSQVLRAGKIIGGTSTINGMAYTRAEDVQIDAWAAIGNDGWNWANLFPYYKKSQTLEIPTTAQVEAGAAYDASANGFDGPLKVGWLNSLEDTSNFHTTLNDTFAGLGVPSNDDVNTGRMVGYSRYPATYDRTLNVRHDAGRAYYYPIANRTNLHLYPNTMAQRLTWTSDANTPTANGVEVLSNNSSIPYTIHANSEVILSAGALASPLLLELSGIGNPSILSKHNISVVVDLPTVGENLQDQTNTGLAYNSSGNTSFSGAGTLVAYPSAAQLFGSEVQKISAHVLQSLPSYAAQVSAASGNITKAADLLKFFKIQHDLIFSTTHPVPMAEILISPSATAFSSEYWALLPFARGSIHITSSVAGTPAAINPNYFMFDWDVTSQIATAKFIRSIYAASPLSSFVGSETKPGLNKVSANATEAEWFDWVKTAYRSNFHPVSTAAMMPREIGGVVDSRLKVYGTANVRVVDASILPMQVSGHLVSTLYAVAERAADLIKEDI
modifications: CDS (1)..(1773); sig_peptide (1)..(57)
notes: purified enzyme of GLD derived from Botrytis tulipae, produced in A. oryzae NS4 carrying the BotGLD-Atsig modified gene
As for B1, the Relative activity was < 0.1% in series [1] (setting [3]); 0.76% in series [1] (setting [4]); 100% in series [1] (setting [5]); 8.2% in series [1] (setting [6]); 20% in series [1] (setting [7]); < 0.1% in series [1] (setting [8]). Besides, the Relative activity in series [1] (setting [9]) was 1.5%; in series [1] (setting [10]) it was < 0.1%; in series [1] (setting [11]), < 0.1%; in series [1] (setting [12]), 10%.

B2: DuGLD: purified enzyme of flavin-binding GLD derived from the genus Dumontinia (Dumontinia tuberosa NBRC30254) (protein, listed as Dumontinia tuberosa)
chain: MNHLLPAFALASLAVASPDLSLTYDYVIVGAGTSGLVIANRLSELNVTVAVIEAGDSGYNNVNVTNPAGYGLAFGTDIDWAYQSTNQKYAGNATQTLRAGKVIGGTSTINGMAYTRAEDVQIDAWAALGNDGWNWENLFPYYKKSQTLQAPTAAQAEAGATYDPSANGFDGPLKVGWLKSLANDDFHIILNDTYASLGIFANEDVNTGRMVGYNRYPVTYDETLNVRHDAGRAYYYPIANRTNLHLYPNTMAQRLTWKSGADVPTANGVEVLTNNSSIPYTISANSEVILSAGALASPLLLELSGIGNPSLLNKYNIPVVVDLPTVGENLQDQTNNGLAYTVSKDASFSGVGTLVTYPSAAQVFGSEIQNISAHVLDSLPSYAAQVSAASGNVTKAADLLEFFKIQHDLIFSTTHPVPMAEILVIPSATGFKSEYWALLPFARGNIHITSSIPGTPAAINPNYYMLDWDITSQITTAKFIRSVYATSPLSTLVGSETKPGLETLSANATEAEWSEWIKAGYRPNFHPVSTAAMMPREVGGVVDSRLKVYGTSNVRVVDASVLPMQVSGHLVSTLYAVAERAADLIKEDI
modifications: CDS (1)..(1770); sig_peptide (1)..(57)
In the case of B2, the Relative activity in series [1] (setting [3]) was < 0.1%; in series [1] (setting [4]), 0.28%; in series [1] (setting [5]), 100%; in series [1] (setting [6]), 1.7%; in series [1] (setting [7]), 10%; in series [1] (setting [8]), < 0.1%. Also, the Relative activity in series [1] (setting [9]) was 0.54%; in series [1] (setting [10]), < 0.1%; in series [1] (setting [11]), < 0.1%; in series [1] (setting [12]) it was 1.0%; in series [2] (10° C., substrate 10 mM, 100% at 30° C.) it was 60.6%; in series [2] (10° C., substrate 10 mM, 100% at 45° C.) it was 60.1%. For the same molecule, the Relative activity is 56.0% in series [2] (10° C., substrate 50 mM, 100% at 30° C.); 50.5% in series [2] (10° C., substrate 50 mM, 100% at 45° C.); 81.5% in series [2] (20° C., substrate 10 mM, 100% at 30° C.); 80.7% in series [2] (20° C., substrate 10 mM, 100% at 45° C.); 77.9% in series [2] (20° C., substrate 50 mM, 100% at 30° C.); 70.3% in series [2] (20° C., substrate 50 mM, 100% at 45° C.). Moreover, the Relative activity in series [2] (30° C., substrate 10 mM, 100% at 30° C.) was determined as 100%; in series [2] (30° C., substrate 10 mM, 100% at 45° C.) it was 99.1%; in series [2] (30° C., substrate 50 mM, 100% at 30° C.), 100%; in series [2] (30° C., substrate 50 mM, 100% at 45° C.), 90.2%; in series [2] (40° C., substrate 10 mM, 100% at 30° C.) it was 108%; in series [2] (40° C., substrate 10 mM, 100% at 45° C.), 107%. In addition, the Relative activity is recorded as 109% in series [2] (40° C., substrate 50 mM, 100% at 30° C.); 98.6% in series [2] (40° C., substrate 50 mM, 100% at 45° C.); 101% in series [2] (45° C., substrate 10 mM, 100% at 30° C.); 100% in series [2] (45° C., substrate 10 mM, 100% at 45° C.); 111% in series [2] (45° C., substrate 50 mM, 100% at 30° C.); 100% in series [2] (45° C., substrate 50 mM, 100% at 45° C.). Further, the Relative activity in series [2] (50° C., substrate 10 mM, 100% at 30° C.) was determined as 87.5%; in series [2] (50° C., substrate 10 mM, 100% at 45° C.), 86.7%; in series [2] (50° C., substrate 50 mM, 100% at 30° C.), 105%; in series [2] (50° C., substrate 50 mM, 100% at 45° C.) it was 94.4%.

B3: CiGLD: purified enzyme of GLD derived from the genus Ciborinia, produced in A. oryzae NS4 carrying the CiGLD-Atsig modified gene (protein, listed as Ciborinia camelliae)
chain: MHRFLPAFVLASLAAASQDVALTYDYVIVGAGTSGLVTAHRLSELADVTVAVIEAGESNYNNANVTNPAGYGLAFGTQIDWQYQTTVQEYGGDVTKVIRAGKSIGGTSTINGMAYTRAEDVQVDAWEALGNEGWNWANMLPYYKKSQTLQVPTEAQAALGAHYDPASNGYEGPLKVGWVNAMATDDFHTILNETYAALDVPANNDVNTGKMIGYTRYPATYDRTLNMRCDAGRAYYYPIQNRTNLHLYPNTMAQRLTWKSGASTPTAEGVEVLADGETTPYTIHASSEVIISAGALGSPLVLEHSGIGNPAILEKYNISVVVDLPTVGENLQDQTNTALGFDTSSDNVTYSAVSTYLGYPSAAQMFGSDFKTVAAEILAALPSYADKVAIASGNVTKAADLLKFFKIQYELIFSATSPVPVAELLVTPVGTTYSAEFWSLLPFSRGNIHISSATPGVAATINPNYFMLDYDMISQVRSAKYIREIFATTPLSPLVGSETTPGLDSIASAATEAEWAAWVKTAYRSNFHPVATAAMMPREIGGVVDSRLKVYGTTNVRVVDASILPMQVCGHLTSTLYAMSERAADLIKEDM
modifications: CDS (1)..(1776); sig_peptide (1)..(57)
notes: purified enzyme of GLD derived from the genus Ciborinia, produced in A. oryzae NS4 carrying the CiGLD-Atsig modified gene
For B3, the Relative activity amounted to 0.49% in series [1] (setting [3]); 10% in series [1] (setting [4]); 100% in series [1] (setting [5]); 23% in series [1] (setting [6]); 25% in series [1] (setting [7]); 0.21% in series [1] (setting [8]). The Relative activity was found to be 6.4% in series [1] (setting [9]), 0.38% in series [1] (setting [10]), 0.40% in series [1] (setting [11]) and 20% in series [1] (setting [12]).

The record behind these values is patent US8945359B2, “Flavin-binding glucose dehydrogenase” (Ikeda Food Research Co., Ltd., priority 2011, dated 2015).
